# Measurements as given in publication PMC5636114 (PLoS ONE, 2017).
# Substitutions are numbered along the chain they refer to. Names and notes keep the numbering of the source.
# B1: FLASH NTD C54S/C83A/N101A/L104A/N108A, C-terminally hexahistidine-tagged (domain or fragment, human, UniProt Q9UKL3 51-137, looked up)
# chain: SRNSLDLYEEILTEEGTAKEATYNDLQVEYGKAQLQMKELMKKFKEIQTQAFSAINEAQSLKKNISALIKTARVEINRKDEEISNLH
# notes: FLASH N-terminal domain, human, residues 51-137, C54S/C83A/N101A/L104A/N108A; also called N101A/L104A/N108A mutant
# B2: FLASH NTD C54S/C83A/L118A/I119A, C-terminally hexahistidine-tagged (domain or fragment, human, UniProt Q9UKL3 51-137, looked up)
# chain: B1 chain with A51N, A54L, A58N, L68A, I69A
# notes: FLASH N-terminal domain, human, residues 51-137, L118A/I119A in the background of C54S/C83A; also called FLASH NTD L118A/I119A mutant
# B3: FLASH NTD C54S/C83A/R128A/K129A/D130A, C-terminally hexahistidine-tagged (domain or fragment, human, UniProt Q9UKL3 51-137, looked up)
# chain: B1 chain with A51N, A54L, A58N, R78A, K79A, D80A
# notes: also called R128A/K129A/D130A mutant
# B4: FLASH NTD C54S/C83A/K88A/K92A/K95A, C-terminally hexahistidine-tagged (domain or fragment, human, UniProt Q9UKL3 51-137, looked up)
# chain: B1 chain with K38A, K42A, K45A, A51N, A54L, A58N
# notes: also called K88A/K92A/K95A mutant
# B5: FLASH NTD C54S/C83A/Y73A/L76A/Y80A, C-terminally hexahistidine-tagged (domain or fragment, human, UniProt Q9UKL3 51-137, looked up)
# chain: B1 chain with Y23A, L26A, Y30A, A51N, A54L, A58N
# notes: also called Y73A/L76A/Y80A mutant
# How the values were obtained:
# [1] = molecular target: the molecule itself; assay: AUC; sedimentation velocity (42,000 rpm) and equilibrium, 20 C, 20 mM Tris (pH 8.5), 250 mM NaCl, 5 mM DTT (low-salt condition), 0.05 to 1 mg/ml (complex also 8 mg/ml); global fit by SEDPHAT: monomer-dimer self-association (dimer to monomers) or A + B <-> AB hetero-association
# [2] = molecular target: the molecule itself; assay: SEC; Superose 12 analytical gel filtration of nickel-purified protein, 20 mM Tris (pH 7.5), 250 mM NaCl, 5 mM DTT, 0.5 mL/min; migration compared with the C54S/C83A control
Protein,stoichiometry N [1],binding result [2]
B1,~3,–
B2,–,binds
B3,–,binds
B4,–,binds
B5,–,binds
